Data taken from PMC11006394.

Legend:
[1] = target: Cno DIL domain (aa 613–1006) (Drosophila) (UniProt Q24279); test: SEC-MALS; Superdex 200, 0.5 ml/min; for the DIL domain: 100 ul at 5.0 mg/ml injected, 300 mM NaCl, 25 mM Tris-HCl pH 8.5, 1 mM MgCl2, 0.1% beta-mercaptoethanol, 0.2 g/l sodium azide; monomer and homodimer peaks; conditions for FHA-DIL-PDZ not given
[2] = target: Cno FHA-DIL-PDZ protein (aa 372–1110) (Drosophila) (UniProt Q24279); test: as above

Cno DIL domain (aa 613–1006) (from UniProt Q24279 613-1006) (domain or fragment)
percent of injected protein eluted as homodimer [1]: 27% | stoichiometry N [1]: 2

Cno FHA-DIL-PDZ protein (aa 372–1110) (from UniProt Q24279 372-1110) (domain or fragment)
percent of injected protein eluted as homodimer [2]: 7% | stoichiometry N [2]: 2
